Results on 32 variants are retold here after the RNAGym collection of RNA variant scans (doi:10.7554/elife.80360).

The labels stand for the following.
B1: HDV Ribozyme (parent)
chain: GGCCGGCAUGGUCCCAGCCUCCUCGCUGGCGCCGGCUGGGCAACAUUCCGAGGGGACCGUCCCCUCGGUAAUGGCGAAUGGGACCCA

The variants in the data set derive from B1. The data set can be described thus: self-cleavage, relative activity (ratio to wild type); higher = more cleavage; co-transcriptional.
As to GGCCGGCAUGGUCCCAGCCUCCUCGUUGGCGCCGGCUGGGCAACAUUCCGAGGUGACCGUCCCCUCGGUAAUGGCGAAUGGGACCCA [C26U G54U], the self-cleavage was determined as 1.07.

On to GGCCGGCAUGGUCCCAGCCUCCUCGUUGGCGCCGGCUGGGCAACAUUCCGAGGAGACCGUCCCCUCGGUAAUGGCGAAUGGGACCCA [C26U G54A], for which the self-cleavage worked out at 0.774.

For the variant GGCCGGCAUGGUCCCAGCCUCCUCGUUGGCGCCGGCUGGGCAACAUUCCGAGGGGACCGUCCCCUCUGUAAUGGCGAAUGGGACCCA [C26U G67U], the self-cleavage is 0.686.

In the case of GGCCGGCAUGGUCCCAGCCUCCUCGUUGGCGCCGGCUGGGCAACAUUCCGAGGGGACCGUCCCCUCGGUAAUGGAGAAUGGGACCCA [C26U C75A], the self-cleavage is 0.154.

As for GGCCGGCAUGGUCCCAGCCUCCUCGUUGGCGCCGGCUGGGCAAUAUUCCGAGGGGACCGUCCCCUCGGUAAUGGCGAAUGGGACCCA [C26U C44U], the self-cleavage amounted to 1.01.

Consider GGCCGGCAUGGUCCCAGCCUCCUCGUUGGCGCCGGCUGGGCAAAAUUCCGAGGGGACCGUCCCCUCGGUAAUGGCGAAUGGGACCCA [C26U C44A], for which the self-cleavage worked out at 1.03.

Consider GGCCGGCAUGGUCCCAGCCUCCUCGUUGGCGCCGGGUGGGCAACAUUCCGAGGGGACCGUCCCCUCGGUAAUGGCGAAUGGGACCCA [C26U C36G], for which the self-cleavage was 0.162.

For the variant GGCCGGCAUGGUCCCAGCCUCCUCGUUGGCGCCGGAUGGGCAACAUUCCGAGGGGACCGUCCCCUCGGUAAUGGCGAAUGGGACCCA [C26U C36A], the self-cleavage is 0.

Regarding GGCCGGCAUGGUCCCAGCCUCCUCGUUGGCGCCGGCUGGGCAACAUUCCGACGGGACCGUCCCCUCGGUAAUGGCGAAUGGGACCCA [C26U G52C], the self-cleavage is 0.9.

Consider GGCCGGCAUGGUCCCAGCCUCCUCGUUGGCGCCGGCUGGGCAACAUUCCGAGGGGACCGUCCCCUCGGUAAUGCCGAAUGGGACCCA [C26U G74C], for which the self-cleavage worked out at 0.519.

On to GGCCGGCAUGGUCCCAGCCUCCUCGUUGGCGCCGGCUGGGCAACAUUCCGAGGGGACCGUCCCCUCGGUAAUGACGAAUGGGACCCA [C26U G74A], for which the self-cleavage worked out at 0.717.

With GGCCGGCAUGGUCCCAGCCUCCUCGUUGGCGCCGGCUGGGCAACAUUCCGAGGGGACCGUCCUCUCGGUAAUGGCGAAUGGGACCCA [C26U C63U], the self-cleavage was 0.943.

For the variant GGCCGGCAUGGUCCCAGCCUCCUCGUUGGCGCCGGCUGGGCAACAUUCCGAGGGGACCGUCCACUCGGUAAUGGCGAAUGGGACCCA [C26U C63A], the self-cleavage came to 0.969.

Turning to GGCCGGCAUGGUCCCAGCCUCCUCGUUGGCGCCGGCUGGGCAACAUUCCAAGGGGACCGUCCCCUCGGUAAUGGCGAAUGGGACCCA [C26U G50A], the self-cleavage is 1.07.

Consider GGCCGGCAUGGUCCCAGCCUCCUCGUUGGCGCCGGCUGGGCAACAUUCCGAGCGGACCGUCCCCUCGGUAAUGGCGAAUGGGACCCA [C26U G53C], for which the self-cleavage is 1.04.

As for GGCCGGCAUGGUCCCAGCCUCCUCGUUGGCGCCGGCUGGGCAACAUUCCGAGUGGACCGUCCCCUCGGUAAUGGCGAAUGGGACCCA [C26U G53U], the self-cleavage worked out at 1.22.

Regarding GGCCGGCAUGGUCCCAGCCUCCUCGUUGGCGCCGGCUGGGCAACAUUCCGAGAGGACCGUCCCCUCGGUAAUGGCGAAUGGGACCCA [C26U G53A], the self-cleavage was determined as 1.16.

As for GGCCGGCAUGGUCCCAGCCUCCUCGUUGGCGCCGGCUGGGCAACAUUCCGAGGGGACCUUCCCCUCGGUAAUGGCGAAUGGGACCCA [C26U G59U], the self-cleavage worked out at 0.881.

Turning to GGCCGGCAUGGUCCCAGCCUCCUCGUUGGCGCCGGCUGGGCAACAUUCCGAGGGGACCCUCCCCUCGGUAAUGGCGAAUGGGACCCA [C26U G59C], the self-cleavage came to 0.935.

For GGCCGGCAUGGUCCCAGCCUCCUCGUUGGCGCCGGCUGGGCAACAUUACGAGGGGACCGUCCCCUCGGUAAUGGCGAAUGGGACCCA [C26U C48A], the self-cleavage worked out at 0.917.

With GGCCGGCAUGGUCCCAGCCUCCUCGUUGGCGCCGGCUGGGCAACAUUUCGAGGGGACCGUCCCCUCGGUAAUGGCGAAUGGGACCCA [C26U C48U], the self-cleavage is 1.01.

GGCCGGCAUGGUCCCAGCCUCCUCGUUGGCGCCGGCUGGGCAACAUUGCGAGGGGACCGUCCCCUCGGUAAUGGCGAAUGGGACCCA [C26U C48G]: the self-cleavage was 1.07.

As to GGCCGGCAUGGUCCCAGCCUCCUCGUUGGCGCCGGCUGGGCAACAUUCCGAGGGGACCGUCCCCUUGGUAAUGGCGAAUGGGACCCA [C26U C66U], the self-cleavage was 1.02.

Take GGCCGGCAUGGUCCCAGCCUCCUCGUUGGCGCCGGCUGGGCAACAUUCCGAGGGCACCGUCCCCUCGGUAAUGGCGAAUGGGACCCA [C26U G55C]: the self-cleavage is 0.954.

For GGCCGGCAUGGUCCCAGCCUCCUCGUUGGCGCCGGCUGGGCAACAUUCCGAGGGUACCGUCCCCUCGGUAAUGGCGAAUGGGACCCA [C26U G55U], the self-cleavage turned out to be 0.929.

Take GGCCGGCAUGGUCCCAGCCUCCUCGUUGGCGCCGGCUGGGCAACAUUCCGAGGGAACCGUCCCCUCGGUAAUGGCGAAUGGGACCCA [C26U G55A]: the self-cleavage is 1.05.

As to GGCCGGCAUGGUCCCAGCCUCCUCGUUGGCGCCGGCUGGGCAACAUUCCGAGGGGACCGUCCCCUCGGUAAUGGCGAAUGGGCCCCA [C26U A83C], the self-cleavage worked out at 0.95.

As to GGCCGGCAUGGUCCCAGCCUCCUCGUUGGCGCCGGCUGGGCAACAUUCCGAGGGGACCGUCCCCUCGGUAAUUGCGAAUGGGACCCA [C26U G73U], the self-cleavage is 0.502.

GGCCGGCAUGGUCCCAGCCUCCUCGUUGGCGCCGGCUGGGCAACAUUCCGAGGGGACCGUCCCCUCGGUAUUGGCGAAUGGGACCCA [C26U A71U]: the self-cleavage was 0.941.

With GGCCGGCAUGGUCCCAGCCUCCUCGUUGGCGCCGGCUGGGCAACAUUCCGAGGGGACCGUCCCCUCGGUAAUGGCAAAUGGGACCCA [C26U G76A], the self-cleavage was determined as 1.04.

In the case of GGCCGGCAUGGUCCCAGCCUCCUCGUUGGCGCCGGCUGGACAACAUUCCGAGGGGACCGUCCCCUCGGUAAUGGCGAAUGGGACCCA [C26U G40A], the self-cleavage was 0.885.

On to GGCCGGCAUGGUCCCAGCCUCCUCGUUGGCGCCGGCUGGCCAACAUUCCGAGGGGACCGUCCCCUCGGUAAUGGCGAAUGGGACCCA [C26U G40C], for which the self-cleavage is 0.946.
